The values that follow come from US20160244525A1.

The target of test [1] is FGFR3-IIIb (human). As to the kind of experiment: SPR (Biacore T100), IgG captured by anti-human Fc, FGFR flowed. (Surface plasmon resonance follows binding to a sensor surface in real time, without labels.)
Test [2] deals with FGFR3-IIIb (human). As to the kind of experiment: blocking ELISA: FGFR3-IIIb-Fc captured on an anti-human Fc plate, antibody titrated, FGF-1 (with heparin) is the blocked ligand, bound FGF-1 read as OD450. A general note: ELISA stands for enzyme-linked immunosorbent assay.
In another test the target is FGFR3-D2 (human) (UniProt P22607). Briefly: SPR (Biacore).
The target of test [3] is FGFR3-IIIb (D2D3) (human). Briefly: SPR (Biacore).
Test [4] has as its target FGFR3-IIIb (human). As to the kind of experiment: SPR.

Chain of R3Mab (antibody) (VH): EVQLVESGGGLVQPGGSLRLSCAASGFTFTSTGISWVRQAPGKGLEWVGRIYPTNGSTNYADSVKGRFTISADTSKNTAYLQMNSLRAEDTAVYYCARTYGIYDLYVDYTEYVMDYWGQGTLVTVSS
Chain of R3Mab (antibody) (VL): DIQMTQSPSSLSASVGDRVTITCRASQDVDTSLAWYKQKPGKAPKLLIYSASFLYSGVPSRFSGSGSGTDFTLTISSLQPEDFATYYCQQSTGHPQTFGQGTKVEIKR
Chain of FGFR3-IIIb (human) (chain, as listed by the source limits assumed): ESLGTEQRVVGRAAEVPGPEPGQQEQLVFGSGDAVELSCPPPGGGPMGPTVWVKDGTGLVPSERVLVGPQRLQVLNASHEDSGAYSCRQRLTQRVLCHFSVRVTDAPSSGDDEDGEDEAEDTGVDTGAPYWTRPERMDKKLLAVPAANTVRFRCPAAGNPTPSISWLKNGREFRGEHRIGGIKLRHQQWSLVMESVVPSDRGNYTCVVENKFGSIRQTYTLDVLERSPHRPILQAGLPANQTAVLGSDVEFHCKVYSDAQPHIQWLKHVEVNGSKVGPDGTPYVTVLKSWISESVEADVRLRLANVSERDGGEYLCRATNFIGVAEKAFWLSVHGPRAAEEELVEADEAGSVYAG
Chain of FGFR3-D2 (human) (P22607 150-248 limits assumed): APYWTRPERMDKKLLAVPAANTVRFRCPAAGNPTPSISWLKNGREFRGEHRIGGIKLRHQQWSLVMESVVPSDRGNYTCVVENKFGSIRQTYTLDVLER
Chain of FGFR3-IIIb (D2D3) (human) (chain, as listed by the source limits assumed): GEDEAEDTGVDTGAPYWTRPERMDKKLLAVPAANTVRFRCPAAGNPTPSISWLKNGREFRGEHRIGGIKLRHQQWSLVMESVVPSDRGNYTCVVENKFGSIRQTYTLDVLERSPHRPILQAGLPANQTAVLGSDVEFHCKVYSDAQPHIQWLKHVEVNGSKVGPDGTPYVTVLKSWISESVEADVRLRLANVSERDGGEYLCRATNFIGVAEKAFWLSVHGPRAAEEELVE

R3Mab (antibody): the Kd (commonly the free concentration of one partner at which half of the binding sites on the other are occupied at equilibrium, for simple one-to-one binding) worked out at 0.24 nM in the test with FGFR3-IIIb (human) [1], 0.26 nM with FGFR3-D2 (human), 0.24 nM in test [3] and 0.24 nM in the test with FGFR3-IIIb (human) [4]. The same substance yielded an IC50 (read off the curve) in the test with FGFR3-IIIb (human) [2] of 1 to 2 nM.
